Laboratory results published in publication PMC9369135, “An FGFR1-Binding Peptide Modified Liposome for siRNA Delivery in Lung Cancer” (International Journal of Molecular Sciences, 2022).
Where no end group is shown, it is not given here.

Tests used:
Experiment in all cases: MST; protein in a series of gradient dilutions, an equal amount of labeled CP7 peptide added; PBS with 0.05% Tween-20; glass capillary; room temperature; Monolith NT.115
Settings in all cases: both partners purified
[1] = biological target: T1, Human FGFR1/CD331 protein (His tag) (human, UniProt P11362 22-376)
T1 construct: human FGFR1/CD331, recombinant protein with His tag, Sino Biological 10616-H08H; Check the vendor's data sheet; source: bought: Sino Biological
T1 sequence (looked up): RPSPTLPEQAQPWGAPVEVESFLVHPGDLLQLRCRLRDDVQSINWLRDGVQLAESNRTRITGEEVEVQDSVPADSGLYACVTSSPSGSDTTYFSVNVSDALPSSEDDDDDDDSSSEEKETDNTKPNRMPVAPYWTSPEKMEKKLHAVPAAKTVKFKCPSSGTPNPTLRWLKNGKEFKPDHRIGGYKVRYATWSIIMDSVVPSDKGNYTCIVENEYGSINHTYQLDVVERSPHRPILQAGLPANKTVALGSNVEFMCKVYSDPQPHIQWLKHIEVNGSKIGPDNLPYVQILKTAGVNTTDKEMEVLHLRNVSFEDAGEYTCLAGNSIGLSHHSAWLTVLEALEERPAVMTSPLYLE

[2] = biological target: T2, Human EGFR/HER1/ErbB1 protein (His tag) (human, UniProt P00533 25-645)
T2 construct: human EGFR/HER1/ErbB1, recombinant protein with His tag, Sino Biological 10001-H08H; Check the vendor's data sheet; source: bought: Sino Biological

[3] = biological target: T3, Human VEGFR1/FLT-1 protein (Fc tag) (human, UniProt P17948 27-758)
T3 construct: human VEGFR1/FLT-1, recombinant protein with Fc tag, Sino Biological 10136-H02H; Check the vendor's data sheet; source: bought: Sino Biological
T3 sequence (P17948 27-758): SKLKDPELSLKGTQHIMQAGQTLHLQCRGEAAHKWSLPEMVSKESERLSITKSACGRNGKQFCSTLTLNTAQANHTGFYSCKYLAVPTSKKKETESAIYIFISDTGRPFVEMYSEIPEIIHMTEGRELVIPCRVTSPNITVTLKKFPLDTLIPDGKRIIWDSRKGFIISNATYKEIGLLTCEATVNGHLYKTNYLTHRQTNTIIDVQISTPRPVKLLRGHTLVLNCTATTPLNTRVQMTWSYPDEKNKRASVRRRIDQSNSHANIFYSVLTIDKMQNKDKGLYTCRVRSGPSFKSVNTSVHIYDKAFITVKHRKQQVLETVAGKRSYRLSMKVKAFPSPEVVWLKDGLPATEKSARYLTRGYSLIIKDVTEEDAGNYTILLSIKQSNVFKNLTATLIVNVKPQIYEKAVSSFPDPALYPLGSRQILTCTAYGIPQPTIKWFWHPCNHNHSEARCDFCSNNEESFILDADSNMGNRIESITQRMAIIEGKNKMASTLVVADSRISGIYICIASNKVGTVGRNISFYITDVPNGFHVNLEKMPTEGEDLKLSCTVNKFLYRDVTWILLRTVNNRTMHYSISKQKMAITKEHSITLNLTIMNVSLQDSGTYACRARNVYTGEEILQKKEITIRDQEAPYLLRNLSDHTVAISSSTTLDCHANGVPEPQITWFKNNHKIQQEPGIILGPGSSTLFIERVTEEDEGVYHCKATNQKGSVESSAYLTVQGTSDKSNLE

Kd [1]: 22.5 nM
Kd [2]: 389 nM
Kd [3]: 66.1 nM
B1: CP7 peptide (CIQPFYP) (peptide)
peptide: CIQPFYP
modifications: also: labelled, label not named
notes: novel peptide designed and screened by the authors' group; The methods of the MST say only 'the labeled peptide'; source: synthetic peptide: Shanghai GL Biochem Peptide Ltd
